Common to all, as to test: SPR
A general note: SPR reads the build-up and loss of mass on a sensor chip optically.

In experiment [1] the target is T1, Dpr11 (Defective proboscis extension response 11), extracellular region, Q8MRE6.
T1 chain: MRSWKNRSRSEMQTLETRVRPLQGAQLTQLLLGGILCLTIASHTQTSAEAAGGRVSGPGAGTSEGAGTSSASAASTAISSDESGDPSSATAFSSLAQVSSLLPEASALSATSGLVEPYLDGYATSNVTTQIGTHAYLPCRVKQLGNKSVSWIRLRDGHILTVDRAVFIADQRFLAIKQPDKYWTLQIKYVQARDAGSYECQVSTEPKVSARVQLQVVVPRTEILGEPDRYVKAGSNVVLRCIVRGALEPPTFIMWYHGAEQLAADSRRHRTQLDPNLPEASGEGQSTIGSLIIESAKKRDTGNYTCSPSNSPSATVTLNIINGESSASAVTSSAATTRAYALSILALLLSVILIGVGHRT
The conditions noted are these: chain shown with the change; 25 °C; 10 mM Tris-HCl, pH 7.2, 150 mM NaCl, 1 mM EDTA, 1 mg mL−1 BSA, 0.01% (v/v) Tween-20; analyte 81 to 0.012 μM, three-fold dilution series.

Experiment [2] has as its target T2, DIP-γ (Dpr Interacting Protein gamma), extracellular region, Q9VAR6.
T2 chain: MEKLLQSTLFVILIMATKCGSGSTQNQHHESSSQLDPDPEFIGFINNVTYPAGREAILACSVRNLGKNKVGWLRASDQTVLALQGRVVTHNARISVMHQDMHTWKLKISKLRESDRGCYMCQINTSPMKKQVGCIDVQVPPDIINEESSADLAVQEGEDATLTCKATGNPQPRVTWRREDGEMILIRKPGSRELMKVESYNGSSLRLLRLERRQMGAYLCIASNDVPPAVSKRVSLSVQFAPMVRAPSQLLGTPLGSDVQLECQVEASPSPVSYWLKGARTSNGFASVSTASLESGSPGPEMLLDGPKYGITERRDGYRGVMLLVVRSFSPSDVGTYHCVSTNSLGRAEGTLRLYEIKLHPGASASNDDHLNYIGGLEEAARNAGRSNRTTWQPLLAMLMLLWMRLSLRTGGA
The conditions noted are these: chain shown with the change; 25 °C; 10 mM Tris-HCl, pH 7.2, 150 mM NaCl, 1 mM EDTA, 1 mg mL−1 BSA, 0.01% (v/v) Tween-20; analyte 81 to 0.012 μM, three-fold dilution series.

Experiment [3] concerns the target T3, DIP-α (Dpr Interacting Protein alpha), extracellular region, Q9W4R3.
T3 chain: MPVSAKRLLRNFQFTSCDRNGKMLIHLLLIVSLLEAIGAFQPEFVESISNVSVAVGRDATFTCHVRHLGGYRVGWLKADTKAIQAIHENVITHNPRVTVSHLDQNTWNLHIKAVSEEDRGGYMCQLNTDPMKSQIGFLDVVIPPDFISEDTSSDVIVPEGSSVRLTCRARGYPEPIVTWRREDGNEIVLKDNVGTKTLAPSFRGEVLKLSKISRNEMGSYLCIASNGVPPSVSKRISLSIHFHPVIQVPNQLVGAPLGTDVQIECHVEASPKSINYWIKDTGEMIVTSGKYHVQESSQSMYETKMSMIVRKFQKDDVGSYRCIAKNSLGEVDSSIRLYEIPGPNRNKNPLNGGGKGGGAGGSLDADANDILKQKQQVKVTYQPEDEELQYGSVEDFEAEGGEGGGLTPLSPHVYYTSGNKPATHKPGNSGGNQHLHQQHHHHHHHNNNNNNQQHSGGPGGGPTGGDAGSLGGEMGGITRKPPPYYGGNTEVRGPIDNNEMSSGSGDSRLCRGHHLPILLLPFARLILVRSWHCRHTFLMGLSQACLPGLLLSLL
The conditions noted are these: chain shown with the change; 25 °C; 10 mM Tris-HCl, pH 7.2, 150 mM NaCl, 1 mM EDTA, 1 mg mL−1 BSA, 0.01% (v/v) Tween-20; analyte 81 to 0.012 μM, three-fold dilution series; parent: 0.0 kcal/mol.

Where a chain is given by its changes, count along the chain named. Names and notes keep the numbering of the source.

This passage reports ddG results from PMC7195491.

B1: DIP-γ (Dpr Interacting Protein gamma), extracellular region, Q9VAR6 D77T (protein)
chain: T2 chain with D77T
Regarding B1, the ddG in experiment [1] was determined as 0.9 kcal/mol.

B2: Dpr11 (Defective proboscis extension response 11), extracellular region, Q8MRE6 K207V (protein)
chain: T1 chain with K207V
In experiment [2], B2 yielded a ddG of 0.6 kcal/mol.

B3: Dpr11 (Defective proboscis extension response 11), extracellular region, Q8MRE6 K207V; E205Q; G157L (protein)
chain: T1 chain with G157L, E205Q, K207V
With B3, the ddG in experiment [3] is less than -2 kcal/mol.

B4: Dpr11 (Defective proboscis extension response 11), extracellular region, Q8MRE6 E205Q; K207V (protein)
chain: T1 chain with E205Q, K207V
Consider B4, for which the ddG in experiment [2] turned out to be 1.7 kcal/mol.
